In patent US6958240, “Inhibition of major groove DNA binding proteins by modified polyamides” (California Instiute of Technology):
Positions count from the first letter of the chain named.

B1: ARE-1 (dsDNA)
DNA 1: CCGGATCCATGGTTGCTGACTAATTGTTATCCTCTAGAGTCGACC
DNA 2: GGTCGACTCTAGAGGATAACAATTAGTCAGCAACCATGGATCCGG
B2: ARE-2 (dsDNA)
DNA 1: B1 DNA 1 with T27G, A29C
DNA 2: B1 DNA 2 with T17G, A19C

Experiments:
[1] = target: T1, GCN4 (222-281), bZIP DNA-binding domain (UniProt P03069 P03069:222-281); test: EMSA; bound near saturation at 200 nM GCN4; 10 mM bisTris pH 7.0, 100 mM NaCl, 1 mM DTT, 1 mM EDTA, 50 ug/mL poly(dI-dC), 22 C; inhibited by polyamides 3, 5 and 13, not by 1 or 4; conditions: protein: synthetic; tags: none; prepared by solid phase peptide synthesis; chain copies: 2 (inferred); label: 5'-32P
T1 sequence (P03069 222-281, one chain of several): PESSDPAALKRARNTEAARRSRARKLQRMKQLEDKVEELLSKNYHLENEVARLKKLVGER
Method: (§1) For gel mobility shifts, polyamide was incubated with radiolabeled synthetic DNA duplex (10 kcpm) in 40 µL reaction volumes of bisTris (10 mM, pH 7.0), NaCl (100 mM), DTT (1 mM), EDTA (1 mM), and poly(dI-dC)·poly(dI-dC) (50 µg/mL) for 16 hours at 22° C. (20 mM MOPS, pH 7.0, 140 mM KCl, 10 mM NaCl, 1 mM MgCl_2, 1 mM spermine was used to model ionic conditions in vivo). GCN4 (222–281) was added and equilibrated for 30 minutes. Loading buffer (15% Ficoll, 0.025% bromophenol blue) (10 µL) was added and 10 µL was immediately loaded onto a running 8% (29:1, acrylamide:bis-acrylamide) polyacrylamide gel (0.5×TBE, 280 V, 0.8 mm, 13 cm). Sufficient separation of the free DNA and the DNA·GCN4 (222–281) complexes was achieved within 45 minutes. Gels were dried and exposed to a storage phosphor screen (Molecular Dynamics) (Johnston, et al. (1990) *Electrophoresis* 11, 355).
(§2) ImPyPyPy-γ-PyPyPyPy-β-polyamides (1 and 3) target the six base pair 5'-TGTTAT-3' site adjacent to the GCN4 binding site of ARE-1 (FIG. 6). ImImPyPy-γ-ImPyPyPy-β-polyamides (2 and 4) were designed to bind 5'-TGGTCT-3' adjacent to the GCN4 site in ARE-2 (FIG. 6).
(§3) The ability of polyamides to inhibit GCN4 (222–281) binding was evaluated using the gel mobility shift assay. […]

[2] = target: T1, GCN4 (222-281), bZIP DNA-binding domain; test: EMSA; bound near saturation at 200 nM GCN4; same buffer, 22 C; inhibited by matched polyamides 4 and 6, not by 2 or 3; conditions: protein: synthetic; tags: none; prepared by solid phase peptide synthesis; chain copies: 2 (inferred); label: 5'-32P
Method: as §1, §2, §3

Binder	binding result [1]	binding result [2]
B1	binds	–
B2	–	binds
